Assay results: US20170115280

Target: reconstituted nascent HDL (rHDL) particle made with isolated human apoA-I (UniProt P02647)
Sequence (P02647 25-267): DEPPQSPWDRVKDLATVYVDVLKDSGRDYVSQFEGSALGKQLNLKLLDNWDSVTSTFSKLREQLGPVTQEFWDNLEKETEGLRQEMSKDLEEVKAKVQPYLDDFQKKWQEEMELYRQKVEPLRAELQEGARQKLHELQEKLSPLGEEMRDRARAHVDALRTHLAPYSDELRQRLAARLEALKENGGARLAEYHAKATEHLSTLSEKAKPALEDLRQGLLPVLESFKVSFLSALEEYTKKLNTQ

| Substance | stability of arylesterase activity at 37° C. in the presence of HDL | rate of inactivation of PON1 (arylesterase activity) with EDTA and β-mercaptoethanol in the presence of rHDL |
| --- | --- | --- |
| rPON1 Y293K mutant | the Y293K PON1 mutant shows the fastest rate of inactivation |  |
| rPON1 Y294K mutant | the rate of Y293K loss in activity is faster than either Y294K or WT PON1, and comparison of Y293K vs. Y294K shows significant difference as well |  |
| rPON1 pan K mutant (Leu9→Lys9, Tyr185→Lys185 and Tyr293→Lys293) with C-terminal His8 tag |  | no protective effects were observed when the pan K rPON1 mutant was incubated with either rHDL or detergent |
| recombinant paraoxonase 1 (PON1) variant G3C9, His-tagged (rPON1 WT) | when HDL is present, WT PON1 is quite stable at 37 °C | A very slow inactivation of WT rPON1 was observed in the presence of rHDL |
